“Also recorded” adds a separate entry of the source. Read-outs that look alike come from different tables or passages of the source.
Legend:
[1] = system: FXI; assay: Pilot experiment: FXI:Ag, FXI inhibitor and FXI procoagulant activity after aXIMab in a single baboon; format: in vivo
Procedure: (§1) The maximum achievable prolongation of the aPTT was about 2.5 fold. FXI:Ag was measured by ELISA using goat anti-human FXI polyclonal capture and detection (horseradish peroxidase conjugated [HRP]) antibodies (Affinity Biologicals, Hamilton, Ontario), which also recognized baboon FXI and its complex with aXIMab. A standard curve was constructed with serial dilutions of NBP, and FXI concentrations were determined in percentage of NBP. Western blots for FXI were performed by size fractionation of 1 μl samples of plasma under non-reducing conditions on 7.5% polyacrylamide-SDS gels, followed by transfer to PVDF membranes. Detection was with a goat-anti-human FXI polyclonal antibody conjugated to HRP and chemiluminescence.

[2] = system: FXI; assay: FXI procoagulant activity, aPTT and PT after single i.v. bolus in baboons; format: in vivo, baboon
Procedure: as §1
The anticoagulant effect (aPTT) was monitored daily, and thrombosis experiments were performed while the FXI procoagulant activity in the circulating blood was reduced by ≥99%, as assessed by comparing the clotting times to a standard curve generated with FXI deficient human plasma (George King Bio-Medical).

[3] = system: third apple (A3) domain of the FXI heavy chain; assay: Immunoblotting of FXI and recombinant FXI/prekallikrein chimeras; format: binding, human; details: for FXI domain recognized: immunoblotting of recombinant FXI/prekallikrein chimeras
Procedure: (§2) Comparative binding studies for monoclonal antibody 1A6 were conducted using FXI, Prekallikrein (PK), and FXI/PK chimeras involving either the substitution FXI domains with PK domains (FIG. 9) or the substitution of PK domains with FXI domains (FIG. 10).

[4] = system: platelet rich plasma; assay: Platelet aggregation in platelet rich plasma in response to ADP and collagen; format: cell-based, baboon; details: platelet rich plasma of treated animals versus control
[5] = molecular target: T1, Human FXI in plasma (Homo sapiens, UniProt P03951); assay: Western blot of human plasma; format: binding
T1 construct: antibody 1A6 recognizes Factor XI in human and non-human primate plasma; from tissue; host or cells: normal human plasma (A4); whole human blood or reconstituted FXII-deficient human blood (A9)
Excerpt: (§3) Results from a Western Blot study corroborating that anti-factor XI monoclonal antibody 1A6 recognizes Factor XI in human and non-human primate plasma is shown in FIG. 7A.

[6] = molecular target: Prekallikrein (PK) (Homo sapiens, UniProt P03952); assay: Western blot binding to prekallikrein
Sequence of Prekallikrein (PK) (P03952 20-638): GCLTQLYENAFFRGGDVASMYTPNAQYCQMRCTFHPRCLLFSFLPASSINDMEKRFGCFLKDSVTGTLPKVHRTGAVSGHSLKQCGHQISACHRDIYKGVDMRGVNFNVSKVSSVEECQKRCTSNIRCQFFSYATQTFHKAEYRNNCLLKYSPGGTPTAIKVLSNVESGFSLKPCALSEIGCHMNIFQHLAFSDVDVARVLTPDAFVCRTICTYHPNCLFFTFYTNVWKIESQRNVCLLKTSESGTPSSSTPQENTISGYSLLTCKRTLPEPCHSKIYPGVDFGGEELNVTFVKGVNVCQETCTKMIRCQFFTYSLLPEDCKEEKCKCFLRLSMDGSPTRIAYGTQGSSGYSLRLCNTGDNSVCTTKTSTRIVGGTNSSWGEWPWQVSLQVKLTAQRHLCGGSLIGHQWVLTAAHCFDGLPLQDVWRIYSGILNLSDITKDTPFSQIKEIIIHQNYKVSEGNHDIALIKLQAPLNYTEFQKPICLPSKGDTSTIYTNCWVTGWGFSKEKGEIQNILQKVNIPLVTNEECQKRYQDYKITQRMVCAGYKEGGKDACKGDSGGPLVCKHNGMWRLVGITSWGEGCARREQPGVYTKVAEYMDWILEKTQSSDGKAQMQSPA
Procedure: as §2

[7] = system: baboon FXI in plasma; assay: Western blot of baboon / non-human primate plasma; format: binding
Excerpt: as §3

[8] = system: baboons (Papio anubis); assay: Local and systemic TAT, βTG and D-dimer during thrombus formation (4 mm grafts); format: in vivo, baboon (Papio anubis)
Procedure: A novel local sampling method was used to assess the local production of thrombogenic mediators by sampling blood that superfused propagating experimental thrombi. […] All blood samples were collected into 1/10th volume 3.8% citrate anticoagulant. Systemic samples (1 ml each) were collected before initiation of thrombosis as well as 30 and 60 min into each study. A total of 6 local blood samples were drawn from the peripheral blood IBL at a rate of 100 μl/min over 10 min intervals out of a 0.64 mm port which was located 10 mm distal to the growing thrombus (FIG. 1A). […] Infusion and sampling were regulated by syringe pumps (Harvard Apparatus). Local sampling was performed only with the 4 mm i.d. devices in this study.
Blood cell counts were determined using a micro-60 automated cell counter (Horiba-ABX Diagnostics). Blood samples were divided into two aliquots and processed according to specific test requirements. All samples were placed on ice for 10 min, centrifuged at 4° C. for 10 min at 12,900 g, and the plasmas were stored at −80° C. For β-thromboglobulin (βTG) determinations, the samples were supplemented with 4 μg/ml prostaglandin E1 (PGE1), 4.3 mg/ml acetylsalicylic acid (ASA), and 50 μg/ml PPACK. Cross-reacting ELISA assays were used to determine D-dimer levels (IMUCLONE® D-Dimer, American Diagnostica; LOD: 35 ng/mL), the platelet activation marker βTG (Asserachrom®, Diagnostica Stago; LOD: 5 IU/mL), and thrombin-antithrombin complexes (TAT, Enzygnost-TAT, Dade-Behring; LOD: 2 ng/mL). All ELISA test kits utilized for these studies have previously shown sensitivity to baboon markers.

[9] = system: baboons; assay: Standard template skin bleeding time test (Surgicutt); format: in vivo, baboon
Procedure: The effects of FXI inhibition and aspirin on primary hemostasis in baboons were assessed using the standard template skin bleeding time test (Surgicutt®, International Technidyne Corp). […] All bleeding time measurements were performed by the same expert technician. For indirect assessment of hemostasis, aPTT and PT measurements were also performed.

[10] = system: baboons; assay: Observation for adverse reactions and bleeding events; format: in vivo, baboon

B1: aXIMab: neutralizing murine IgG/kappa anti-human FXI monoclonal antibody from hybridoma 1A6; binds A3 domain; VH SEQ ID NO:3, VL SEQ ID NO:5 (antibody, listed as Mus musculus, V domains shown)
VH: QVTLKESGPGILKPSQTLSLTCSFSGFSLSTSGMGVGWIRQPSGKGLEWLAHIWWDDDKYYNPSLKSQLTISKDTSRNQVFLKITSVDAADTATYYCARKRSSVVAHYYAMDYWGQGTSVTVSS
VL: DIVLTQSPASLAVSLGQRATISCKASQSVDYDGDSYLNWYQQKPGQPPKLLIYAASNLESGIPARFSGSGSGTDFTLNIHPVEEEDAATYYCQQSNGDPWTFGGGTKLEIK
FXI:Ag levels ([1]; 1 h after 2 mg/kg, single baboon, baseline 110%): 40 % of NBP levels | FXI activity ([1]; 1 h after 2 mg/kg, single baboon, baseline 125%): < 1% | Maximum circulating FXI inhibitor levels (Bethesda assay) ([1]; 1 h post infusion, 2 mg/kg, single baboon): 72 Bethesda units [BU] | circulating FXI inhibitor levels (Bethesda assay) ([1]; by day 15, 2 mg/kg, single baboon): < 0.6 BU | FXI:Ag levels ([1]; day 8 post-infusion, 2 mg/kg, single baboon): 300 % of control | FXI activity ([1]; day 27, 2 mg/kg, single baboon): 136% | Plasma FXI antigen ([1]; day 27, 2 mg/kg, single baboon): 130% | total FXI:Ag levels ([1]; following the disappearance of FXI activity): temporarily increased several-fold above baseline | FXI activity inhibited ([1]; for 10 days after administration, 2 mg/kg, single baboon): > 99% | free FXI:Ag ([1]; for over a week following injection): < 1% | maximum achievable prolongation of the aPTT ([1]; in vivo): about 2.5 fold | Plasma FXI antigen ([1]; through day 15, 2 mg/kg, single baboon): above 200 % of control | day by which all clotting times normalized ([2]; 2 mg/kg i.v. bolus, one-stage clotting assay): ≤ 11 days | FXI procoagulant activity inhibited ([2]; 1 hr after infusion, 2 mg/kg i.v. bolus, 4 baboons, range 98.8-99.5%): 99.0% | PT ([2]; after aXIMab administration, n=11, PBS vehicle 9.0±0.1 sec): 9.1 ± 0.1 s | aPTT ([2]; after aXIMab administration, control 30.5±0.7 sec): 65.6 ± 2.0 s | PT, differences between groups ([2]; all baboons): no differences | binding to FXI/PK chimeras ([3]; FXI domains substituted with PK domains (FIG. 9)): bound all FXI/PK chimeras except the chimera in which the A3 domain of FXI was substituted with a PK domain | binding to FXI/PK chimeras ([3]; PK domains substituted with FXI domains (FIG. 10), listed as 1A6): bound only to chimeras in which the A3 domain of FXI had been inserted; also recorded: bind only to chimeras in which the A3 domain of FXI had been inserted | FXI domain recognized [3]: specifically recognized the third apple (A3) domain | FXI domain recognized ([3]; listed as 1A6): bound to an epitope on the FXI A3 domain | Platelet aggregation in response to ADP and collagen [4]: unchanged | recognition of FXI on Western blot [5]: single band at 160 kDa | recognition of FXI on Western blot ([5]; listed as 1A6): recognizes | binding to PK [6]: did not bind | recognition of FXI on Western blot [7]: single band at 160 kDa | recognition of FXI on Western blot ([7]; listed as 1A6): recognizes | βTG release (platelet activation at thrombus surface) reduced ([8]; at 30 min, samples taken distal to thrombi): 86% | TAT levels by local sampling reduced ([8]; at 40 min): up to 98% | Systemic βTG levels reduced ([8]; at 60 min): 42% | systemic TAT levels reduced versus untreated controls ([8]; at 60 min): 81% | systemic TAT levels ([8]; at 60 min, n=6, control 22.1±2.5): 4.3 ± 0.5 µg/L | Systemic βTG levels ([8]; at 60 min, n=6, vehicle 39.5±5.5): 23.0±2.1 IU/ml | increase in local TAT levels ([8]; pre-treatment with aXIMab (FIG. 4A)): prevented the increase in local TAT levels | effect on bleeding time / hemostasis ([9]; FIG. 6, compared with no treatment controls): did not demonstrably impair hemostasis | standard template bleeding time ([9]; vehicle-treated controls 3.4±0.2 min): 3.5 ± 0.3 min | adverse reactions to the antibody ([10]; 2 mg/kg i.v. bolus, 4 baboons): No adverse reactions | adverse bleeding events ([10]; one week follow-up periods of observation): No re-bleeding phenomena, petechiae, hematomas or other adverse bleeding events
